Measurements from paper PMC3085015.

Key:
F14Bpa-Rop [1] = target: F14Bpa-Rop (UniProt P03051); experiment: cross-linking
F14Bpa-Rop [2] = target: F14Bpa-Rop (UniProt P03051); experiment: cross-linking; remark: listed apart in the source
F14Bpa-Rop [3] = target: F14Bpa-Rop (UniProt P03051); experiment: cross-linking + SEC
F14Bpa-Rop [4] = target: F14Bpa-Rop (UniProt P03051); experiment: SEC
wild type Rop = wild type Rop (UniProt P03051); experiment: SEC

In the case of “F14Bpa-Rop (from UniProt P03051 1-63) (natural protein)”, the stoichiometry N (F14Bpa-Rop [1]) is reported as 4, the stoichiometry N (F14Bpa-Rop [2]) is reported as 4 and the stoichiometry N (F14Bpa-Rop [3]) is reported as 4. The stoichiometry N (F14Bpa-Rop [4]) was 2.

Substance “wild type Rop (from UniProt P03051 1-63) (natural protein)” has a stoichiometry N (wild type Rop) of 2.
